Where two headings read alike, the source gives them in different places.
T1: IL-18 receptor (IL-18Rα/IL-18Rβ) overexpressed on HEK-Blue IL-18 cells (Homo sapiens (Human), UniProt Q13478 19-541; O95256 20-599)
T1 sequence 1: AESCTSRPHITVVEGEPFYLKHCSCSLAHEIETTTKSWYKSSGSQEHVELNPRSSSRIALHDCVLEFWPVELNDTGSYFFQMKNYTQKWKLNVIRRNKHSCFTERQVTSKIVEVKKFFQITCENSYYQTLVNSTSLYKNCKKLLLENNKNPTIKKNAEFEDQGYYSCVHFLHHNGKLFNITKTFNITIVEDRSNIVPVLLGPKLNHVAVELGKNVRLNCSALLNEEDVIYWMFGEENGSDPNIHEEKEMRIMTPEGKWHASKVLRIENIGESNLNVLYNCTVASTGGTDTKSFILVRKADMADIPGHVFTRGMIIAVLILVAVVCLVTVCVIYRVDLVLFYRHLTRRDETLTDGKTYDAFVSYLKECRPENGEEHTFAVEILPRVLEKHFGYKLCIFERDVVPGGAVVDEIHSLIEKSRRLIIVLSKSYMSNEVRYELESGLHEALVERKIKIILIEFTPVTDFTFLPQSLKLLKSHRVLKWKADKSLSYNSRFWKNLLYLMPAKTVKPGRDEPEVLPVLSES
T1 sequence 2: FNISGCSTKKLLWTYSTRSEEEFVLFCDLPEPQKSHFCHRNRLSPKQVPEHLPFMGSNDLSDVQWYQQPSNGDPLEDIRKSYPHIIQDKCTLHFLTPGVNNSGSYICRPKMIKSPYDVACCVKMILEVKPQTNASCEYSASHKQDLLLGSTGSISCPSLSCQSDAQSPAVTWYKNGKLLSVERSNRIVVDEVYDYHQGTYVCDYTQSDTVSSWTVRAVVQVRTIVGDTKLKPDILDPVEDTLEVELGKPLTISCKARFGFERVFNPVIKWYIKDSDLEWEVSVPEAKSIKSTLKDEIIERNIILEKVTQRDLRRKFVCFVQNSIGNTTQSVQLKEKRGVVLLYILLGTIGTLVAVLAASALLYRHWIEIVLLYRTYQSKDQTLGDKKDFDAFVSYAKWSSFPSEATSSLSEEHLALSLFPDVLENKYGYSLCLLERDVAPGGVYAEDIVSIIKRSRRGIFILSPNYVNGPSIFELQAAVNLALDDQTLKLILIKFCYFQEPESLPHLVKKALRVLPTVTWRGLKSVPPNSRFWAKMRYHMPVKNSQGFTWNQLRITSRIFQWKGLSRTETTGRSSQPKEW


Tests used:
Test in all cases: cell-based or functional assay
[1] = biological target: T1, IL-18 receptor (IL-18Rα/IL-18Rβ) …
[2] = biological target: T1, IL-18 receptor (IL-18Rα/IL-18Rβ) …; remark: listed apart in the source
[3] = biological target: T1, IL-18 receptor (IL-18Rα/IL-18Rβ) …; remark: listed apart in the source
[4] = biological target: T1, IL-18 receptor (IL-18Rα/IL-18Rβ) …; remark: listed apart in the source

HEK-Blue IL-18: Abs 405 [1] [Abs]	HEK-Blue IL-18: Fold over Background [1] [fold]	HEK-Blue IL-18: Abs 405 at 100 nM [2] [Abs]	HEK-Blue IL-18: Fold over Background [2] [fold]	Binder	further results
0.16	1.3	–	–	DGL160 (bispecific antibody) heavy 1: QVQLVESGGGLVQAGGSLRLSCAASGRTFSSYTMGWFRQAPGKEREFVAAISWSAGRTYYADSVKGRFTISRDNAKNTVYLQMNSLKPEDTAVYFCAAEEAPDWAPIDCSGYGCLSLYDYWGQGTQVTVSSDKGPSVFPLAPEPKSSEVQLVESGGGLVQAGGSLRLSCAASGRTFRNYHMGWFRQAPGQEREFVAAISSSGGKTSYPDSVNGRFTISRDNAKNTVYLQMNNLKVEDTAVYYCAADPRYWVAAGGSEPENVEVWGQGTLVTVSSDKTHTCPPCPAPEAAGGPSVFLFPPKPKDTLMISRTPEVTCVVVDVSHEDPEVKFNWYVDGVEVHNAKTKPREEQYNSTYRVVSVLTVLHQDWLNGKEYKCKVSNKALPAPIEKTISKAKGQPREPQVCTLPPSRDELTKNQVSLSCAVKGFYPSDIAVEWESNGQPENNYKTTPPVLDSDGSFFLVSKLTVDKSRWQQGNVFSCSVMHEALHNHYTQKSLSLSPG heavy 2: not shown	–
–	–	1.5	6.6	DGL220 (bispecific antibody) heavy 1: QVQLVESGGGLVQAGGSLRLSCAASGRTFSKHAMGWFRQAPGKEREFVAAIDWSGGSTYYADSVKGRFTISRDNAKNTVYLQMDSLKPEDTAVYYCAADSYTDYAQLWLPELESEYDYWGQGTLVTVSSPLAPCPPCPAPEAAGAPSVFLFPPKPKDTLMISRTPEVTCVVVDVSHEDPEVKFNWYVDGVEVHNAKTKPREEQYNSTYRVVSVLTVLHQDWLNGKEYKCKVSNKALPAPIEKTISKAKGQPREPQVCTLPPSRDELTKNQVSLSCAVKGFYPSDIAVEWESNGQPENNYKTTPPVLDSDGSFFLVSKLTVDKSRWQQGNVFSCSVMHEALHNHYTQKSLSLSPGWSHPQFEK heavy 2: not shown	–
0.19	1.6	–	–	DGL161 (bispecific antibody) heavy 1: EVQLVESGGGLVQPGGSLRLSCAASGFFLDDYVLGWFRQAPGKPREGVSCISSRGRYLNYAETVKGRFTISRSNAKNTVYLQMNNLEPEDTAVYYCAAVRRVSEVCKLAEDDFASWGQGTQVTVSSDKGPSVFPLAPEPKSSQVQLVESGGGLVQAGDSLRLSCVASERTFSSYTMGWFRQAPGKEREFTAALSWWNGGISTAYADSVKGRFTISRDNAKNTVYLQMNSLKTEDTALYYCAAARDRMPRADEYDYWGQGTQVTVSSDKTHTCPPCPAPEAAGGPSVFLFPPKPKDTLMISRTPEVTCVVVDVSHEDPEVKFNWYVDGVEVHNAKTKPREEQYNSTYRVVSVLTVLHQDWLNGKEYKCKVSNKALPAPIEKTISKAKGQPREPQVCTLPPSRDELTKNQVSLSCAVKGFYPSDIAVEWESNGQPENNYKTTPPVLDSDGSFFLVSKLTVDKSRWQQGNVFSCSVMHEALHNHYTQKSLSLSPG heavy 2: not shown	–
–	–	0.9	4.1	DGL093 (bispecific antibody) heavy 1: QVQLVESGGGLVQAGGSLRLSCAASGRTFSKHAMGWFRQAPGKEREFVAAIDWSGGSTYYADSVKGRFTISRDNAKNTVYLQMDSLKPEDTAVYYCAADSYTDYAQLWLPELESEYDYWGQGTQVTVSSDKTHTCPPCPAPEAAGGPSVFLFPPKPKDTLMISRTPEVTCVVVDVSHEDPEVKFNWYVDGVEVHNAKTKPREEQYNSTYRVVSVLTVLHQDWLNGKEYKCKVSNKALPAPIEKTISKAKGQPREPQVCTLPPSRDELTKNQVSLSCAVKGFYPSDIAVEWESNGQPENNYKTTPPVLDSDGSFFLVSKLTVDKSRWQQGNVFSCSVMHEALHNHYTQKSLSLSPG heavy 2: not shown	HEK-Blue IL-18: Abs405 (Emax) [3]: 1.38 Abs; HEK-Blue IL-18: EC50 [3]: 8.3 pM; HEK-Blue IL-18: Fold over Background [4]: 9.2 fold
0.79	6.6	–	–	DGL162 (bispecific antibody) heavy 1: QVQLVESGGGLVQAGGSLRLSCAASGRTFSKHAMGWFRQAPGKEREFVAAIDWSGGSTYYADSVKGRFTISRDNAKNTVYLQMDSLKPEDTAVYYCAADSYTDYAQLWLPELESEYDYWGQGTQVTVSSDKGPSVFPLAPEPKSSQVQLQESGGGLVQAGGSLKLSCQASGLTFKRNTMGWFRQAPGKEREFVAHFLWTGGETDYADAVKGRFTISRDNAKNTVYLQMNSLKPEDTAVYFCAANYAGYRIDGYQYWGQGTQVTVSSDKTHTCPPCPAPEAAGGPSVFLFPPKPKDTLMISRTPEVTCVVVDVSHEDPEVKFNWYVDGVEVHNAKTKPREEQYNSTYRVVSVLTVLHQDWLNGKEYKCKVSNKALPAPIEKTISKAKGQPREPQVCTLPPSRDELTKNQVSLSCAVKGFYPSDIAVEWESNGQPENNYKTTPPVLDSDGSFFLVSKLTVDKSRWQQGNVFSCSVMHEALHNHYTQKSLSLSPG heavy 2: not shown	–
–	–	0.6	2.4	DGL221 (bispecific antibody) heavy 1: QVQLVESGGGLVQAGGSLRLSCAASGRTFSKHAMGWFRQAPGKEREFVAAIDWSGGSTYYADSVKGRFTISRDNAKNTVYLQMDSLKPEDTAVYYCAADSYTDYAQLWLPELESEYDYWGQGTLVTVSSGGGGSGGGGSGGGGSGGGGSCPPCPAPEAAGAPSVFLFPPKPKDTLMISRTPEVTCVVVDVSHEDPEVKFNWYVDGVEVHNAKTKPREEQYNSTYRVVSVLTVLHQDWLNGKEYKCKVSNKALPAPIEKTISKAKGQPREPQVCTLPPSRDELTKNQVSLSCAVKGFYPSDIAVEWESNGQPENNYKTTPPVLDSDGSFFLVSKLTVDKSRWQQGNVFSCSVMHEALHNHYTQKSLSLSPGWSHPQFEK heavy 2: not shown	–
–	–	1	4.4	DGL219 (bispecific antibody) heavy 1: QVQLVESGGGLVQAGGSLRLSCAASGRTFSKHAMGWFRQAPGKEREFVAAIDWSGGSTYYADSVKGRFTISRDNAKNTVYLQMDSLKPEDTAVYYCAADSYTDYAQLWLPELESEYDYWGQGTLVTVSSPLAPDKTHTCPPCPAPEAAGAPSVFLFPPKPKDTLMISRTPEVTCVVVDVSHEDPEVKFNWYVDGVEVHNAKTKPREEQYNSTYRVVSVLTVLHQDWLNGKEYKCKVSNKALPAPIEKTISKAKGQPREPQVCTLPPSRDELTKNQVSLSCAVKGFYPSDIAVEWESNGQPENNYKTTPPVLDSDGSFFLVSKLTVDKSRWQQGNVFSCSVMHEALHNHYTQKSLSLSPGWSHPQFEK heavy 2: not shown	–
–	–	1.3	5.5	DGL222 (bispecific antibody) heavy 1: QVQLVESGGGLVQAGGSLRLSCAASGRTFSKHAMGWFRQAPGKEREFVAAIDWSGGSTYYADSVKGRFTISRDNAKNTVYLQMDSLKPEDTAVYYCAADSYTDYAQLWLPELESEYDYWGQGTLVTVSSEKSYGPPCPPCPAPEAAGAPSVFLFPPKPKDTLMISRTPEVTCVVVDVSHEDPEVKFNWYVDGVEVHNAKTKPREEQYNSTYRVVSVLTVLHQDWLNGKEYKCKVSNKALPAPIEKTISKAKGQPREPQVCTLPPSRDELTKNQVSLSCAVKGFYPSDIAVEWESNGQPENNYKTTPPVLDSDGSFFLVSKLTVDKSRWQQGNVFSCSVMHEALHNHYTQKSLSLSPGWSHPQFEK heavy 2: not shown	–
0.36	3	–	–	DGL163 (bispecific antibody) heavy 1: QVQLVESGGGLVQAGGSLRLSCAASGRTFSSYNMGWFRQAPGKERESVAAISWSGGSSYYADSVKGRFTISRDNAKPTVYLQMNSLKPEDTAVYYCAADRDSEEWDGSSWFFKSDYWGQGTQVTVSSDKGPSVFPLAPEPKSSQVQLVESGGGLVQTGGPLRLSCAASGGTFSRYTMGWFRQAPGKEREYVAAISWRGSSIYYADAVKGRFTISRDSAKSTVYLQMNNLNSDDTAVYYCAADRTDLPRNAGEYGYWGQGTQVTVSSDKTHTCPPCPAPEAAGGPSVFLFPPKPKDTLMISRTPEVTCVVVDVSHEDPEVKFNWYVDGVEVHNAKTKPREEQYNSTYRVVSVLTVLHQDWLNGKEYKCKVSNKALPAPIEKTISKAKGQPREPQVCTLPPSRDELTKNQVSLSCAVKGFYPSDIAVEWESNGQPENNYKTTPPVLDSDGSFFLVSKLTVDKSRWQQGNVFSCSVMHEALHNHYTQKSLSLSPG heavy 2: not shown	–

From patent US20240209100A1 (DIAGONAL THERAPEUTICS, published 2024)
